Earlier results as cited in publication PMC6324986.

Target: Bub1 (Homo sapiens) (UniProt O43683)
UniProt O43683, sequence (O43683 whole entry): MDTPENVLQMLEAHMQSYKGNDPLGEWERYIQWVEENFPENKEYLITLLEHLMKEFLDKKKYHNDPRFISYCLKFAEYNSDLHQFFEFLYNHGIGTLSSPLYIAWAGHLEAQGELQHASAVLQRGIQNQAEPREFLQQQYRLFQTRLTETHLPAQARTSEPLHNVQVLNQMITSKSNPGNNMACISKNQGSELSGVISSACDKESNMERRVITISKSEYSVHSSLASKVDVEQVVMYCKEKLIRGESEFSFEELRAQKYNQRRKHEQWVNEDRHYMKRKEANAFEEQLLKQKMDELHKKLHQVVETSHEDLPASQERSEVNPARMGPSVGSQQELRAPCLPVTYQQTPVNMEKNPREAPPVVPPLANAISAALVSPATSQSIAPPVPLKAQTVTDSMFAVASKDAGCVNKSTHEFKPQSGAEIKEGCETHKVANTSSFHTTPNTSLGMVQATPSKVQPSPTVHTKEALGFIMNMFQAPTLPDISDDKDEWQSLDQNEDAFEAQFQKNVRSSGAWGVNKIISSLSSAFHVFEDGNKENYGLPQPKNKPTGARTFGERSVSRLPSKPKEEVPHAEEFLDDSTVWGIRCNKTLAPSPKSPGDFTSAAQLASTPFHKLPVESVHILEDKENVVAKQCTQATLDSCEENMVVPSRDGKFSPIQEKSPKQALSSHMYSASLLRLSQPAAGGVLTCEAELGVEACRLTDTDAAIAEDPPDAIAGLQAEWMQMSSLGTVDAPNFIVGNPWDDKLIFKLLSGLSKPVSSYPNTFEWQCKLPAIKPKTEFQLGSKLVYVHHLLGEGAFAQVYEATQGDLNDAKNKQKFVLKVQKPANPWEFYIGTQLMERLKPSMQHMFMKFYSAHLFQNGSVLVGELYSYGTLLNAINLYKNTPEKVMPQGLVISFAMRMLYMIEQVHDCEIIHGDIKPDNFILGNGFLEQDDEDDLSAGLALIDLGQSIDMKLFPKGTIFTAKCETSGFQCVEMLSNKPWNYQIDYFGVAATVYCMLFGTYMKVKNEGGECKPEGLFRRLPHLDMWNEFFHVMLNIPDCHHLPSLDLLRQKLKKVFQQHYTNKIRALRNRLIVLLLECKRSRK

Kd: > 3 µM
Substance: Mad1 (from UniProt Q9Y6D9)
